Source: patent US20150246947A1 (BAXALTA, published 2015)
Like-named read-outs stand apart in the source and are kept apart here.

Columns and labels:
human Protein S [1] = target: T1, human Protein S (UniProt P07225 42-676); assay: LANCE competition
T1 chain: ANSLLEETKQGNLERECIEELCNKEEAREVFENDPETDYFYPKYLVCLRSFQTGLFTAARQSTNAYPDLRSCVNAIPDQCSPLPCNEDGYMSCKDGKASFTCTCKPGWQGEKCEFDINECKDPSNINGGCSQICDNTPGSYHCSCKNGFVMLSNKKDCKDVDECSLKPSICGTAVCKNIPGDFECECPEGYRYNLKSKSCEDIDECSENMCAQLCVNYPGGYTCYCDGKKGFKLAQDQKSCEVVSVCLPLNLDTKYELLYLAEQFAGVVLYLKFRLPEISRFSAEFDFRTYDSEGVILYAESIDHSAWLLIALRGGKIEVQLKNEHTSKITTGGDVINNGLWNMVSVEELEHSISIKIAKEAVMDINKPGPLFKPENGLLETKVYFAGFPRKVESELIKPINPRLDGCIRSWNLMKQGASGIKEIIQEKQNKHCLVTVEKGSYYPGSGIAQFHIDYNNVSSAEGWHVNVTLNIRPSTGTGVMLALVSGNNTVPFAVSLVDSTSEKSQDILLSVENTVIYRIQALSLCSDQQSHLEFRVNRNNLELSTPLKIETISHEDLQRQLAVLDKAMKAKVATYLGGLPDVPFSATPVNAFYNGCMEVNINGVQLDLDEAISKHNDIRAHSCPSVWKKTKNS
In short: (§1)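 A homogeneous time-resolved FRET (LANCE) competition format paired europium-labelled Protein S and ULight-labelled streptavidin with a biotinylated tracer peptide, against which unlabelled test peptide was titrated three-fold. With final concentrations of 10 nM Protein S, 100 nM streptavidin and 300 nM tracer in 50 µl, or 2 nM Protein S and 60 nM tracer when a Tecan F500 was used, samples stood 1 hour at room temperature. Emission was read at 665 nm with excitation at 340 nm. Non-linear regression of these signals gave the IC50.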

human Protein S [2] = target: T1, human Protein S; assay: LANCE competition
In short: as §1

| Binder | IC50 (human Protein S [1]) | IC50 (human Protein S [2]) |
| --- | --- | --- |
| Ac-EEYVSAGWYDMNRDTYTEFY-NH2 [JBS3252] |  | 12.8 nM |
| Ac-FGIVSAGWYDYNTDTYYEPY-NH2 [JBS3269] | 56.9 nM |  |
| Ac-NMEVSAGWYDYNSDTYHEFW-NH2 [JBS3290] | 3.4 nM |  |
| Ac-EVEVSAGWYDYNDDKYYEFG-NH2 [JBS3276] | 3 nM |  |
| Ac-EHIVSAGWYDYNMDEYYEFW-NH2 [JBS3294] | 6.3 nM |  |
| Ac-EGYVSAGWYDYNKDIYLEFE-NH2 [JBS3259] | 3.7 nM |  |
| Ac-EYTASAGWYDYNSDTYYEFE-NH2 [JBS3255] | 9.5 nM |  |
| Ac-YNEVSAGWYDMNEDTYYEFY-NH2 [JBS3280] | 5.3 nM |  |
| Ac-EYTVSAGWYDYNNDIYFEFY-NH2 [JBS3219] |  | 1.1 nM |
| Ac-EVEVSAGWYEYNTDTYYEFW-NH2 [JBS3282] | 4.1 nM |  |
| Ac-EYYVSAGWYDYNNDTYYEFE-NH2 [JBS3233] |  | 0.9 nM |
| Ac-EATVSIGWYDYNKDEYYEFY-NH2 [JBS3291] | 8 nM |  |
| Ac-KDKVSAGWYDYNSDTYYEFT-NH2 [JBS3300] | 3.2 nM |  |
| Ac-EYYVSAGWYDYNSDTYQEFI-NH2 [JBS3244] |  | 4.7 nM |
| Ac-DVYVSAGWYDYNEDTYYEFS-NH2 [JBS3288] | 3.1 nM |  |
| Ac-EYEVSAGWYDYNNDVYNEFY-NH2 [JBS3277] | 3.4 nM |  |
| Ac-EYYVSAGWYDYNTDTYYEFD-NH2 [JBS3231] |  | 1.5 nM |
| Ac-AYIVEAGWYDYNTDTYEEFW-NH2 [JBS3305] | 3.7 nM |  |
| Ac-YGIVSAGWYEYNTDIYEEFW-NH2 [JBS3257] | 14.8 nM |  |
| Ac-EYYVSAGWYDYNYDVYTEFE-NH2 [JBS3248] |  | 3.7 nM |
| Ac-ITHVTAGWYDYNTDTYYEFI-NH2 [JBS3302] | 3.5 nM |  |

The remaining lines, values ahead:

| IC50 (human Protein S [1]) | IC50 (human Protein S [2]) | Binder |
| --- | --- | --- |
| 1.1 nM |  | Ac-EYFVSAGWYDYNADIYYEFD-NH2 [JBS3278] |
| 1 nM |  | Ac-ESYVSAGWYDYNTDTYYEFY-NH2 [JBS3262] |
| 2.5 nM |  | Ac-NMYVSAGWYNYNEDTYEEFY-NH2 [JBS3289] |
| 1.6 nM |  | Ac-EYSVSAGWYDYNTDVYYEFE-NH2 [JBS3266] |
| 1.3 nM |  | Ac-NYIVSAGWYDYNNDEYIEFY-NH2 [JBS3286] |
| 2.8 nM |  | Ac-EYTVSAGWYNYNADEYYEFE-NH2 [JBS3253] |
| 1.4 nM |  | Ac-FEYVIAGWYDYNTDTYHEFN-NH2 [JBS3272] |
| 0.5 nM |  | EYYVSAGWYDYNTDTYYEFEC [JBS3320] |
| 1.4 nM |  | Ac-WYEVEIGWYDYNTDTYQEFY-NH2 [JBS3308] |
| 1.7 nM |  | Ac-ESIVSAGWYDYNTDEYYEFF-NH2 [JBS3267] |
| 2 nM |  | Ac-EYIVEAGWYDINEDKYLEFY-NH2 [JBS3264] |
| 1.7 nM |  | Ac-YGIVEAGWYEYNTDEYIEFW-NH2 [JBS3256] |
| 1.7 nM |  | Ac-VIEVSAGWYDYNEDKYYEFW-NH2 [JBS3303] |
| 2.1 nM |  | Ac-EAMVSAGWYDYMNDTYYEFE-NH2 [JBS3293] |
| 2.7 nM |  | Ac-EFIVSAGWYDYNKDTYIEFE-NH2 [JBS3292] |
| 2 nM |  | Ac-KVEVSAGWYDYNKDVYYEFE-NH2 [JBS3299] |

| IC50 (human Protein S [1]) | IC50 (human Protein S [2]) | Binder |
| --- | --- | --- |
| 1.2 nM |  | Ac-RYIVSAGWYDIIQDTYFEFY-NH2 [JBS3285] |
| 1.4 nM |  | Ac-HYNVSAGWYDYNNDEYFEFY-NH2 [JBS3307] |
| 1.4 nM |  | Ac-EYSVSAGWYDYYNDTYYEFY-NH2 [JBS3265] |
| 2 nM |  | Ac-ESYVSAGWYDYNIDAYYEFY-NH2 [JBS3261] |
| 1.5 nM |  | Ac-ESIVSAGWYDYNTDTYYEFT-NH2 [JBS3268] |
| 1.1 nM |  | Ac-YVTVSAGWYDYNKDEYFEFY-NH2 [JBS3309] |
| 1.6 nM |  | Ac-EYTISAGWYDYNTDMYYEFV-NH2 [JBS3254] |
| 1.5 nM |  | Ac-VFYVSAGWYDYNDDKYYEFW-NH2 [JBS3304] |
| 1.3 nM |  | Ac-IIMVSAGWYDYNTDTYYEFE-NH2 [JBS3301] |
| 1.2 nM |  | Ac-EVHVSAGWYDYNNDTYYEFG-NH2 [JBS3275] |
| 1.5 nM |  | Ac-YNIVSAGWYDYNKDTYYEFF-NH2 [JBS3279] |
| 1.2 nM |  | Ac-EVYVSAGWYNYNEDAYYEFW-NH2 [JBS3287] |
| 1.9 nM |  | Ac-FEYVSAGWYDYNTDTYYEFY-NH2 [JBS3271] |
| 1.2 nM |  | Ac-FGIISAGWYDYNEDAYSEFY-NH2 [JBS3270] |
| 1 nM |  | Ac-KMHVSIGWYDYNNDIYYEFY-NH2 [JBS3298] |
